Data published in the supplement of paper PMC10126150.
± gives the standard deviation of the averaged measurements.

test system: ATP; test: switch fluorescence ratio, 500 uM ATP over buffer (Cy3 cluster intensity, sum of 5 cycles each) (fold (ratio)); higher = stronger signal-on switching upon ATP binding; sequences stand for … in TCGTCGGCAGCGTCAGATGTGTATAAGAGACAGTTTTTTTTTTTTTTTTTTTTTTTTT…TC; settings: aptamer strand: ATP DNA aptamer (quencher-CACCTGGGGGAGTATTGCGGAGGAAGG + anchor), 100 nM annealed; ATP concentration: 500 uM
In short: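 Per cluster, summed Cy3 intensity from the target cycles was divided by that from the buffer cycles to give the fluorescence ratio, then averaged per switch-domain sequence. Clusters outside 100-1000 RFU were excluded. The Cy3-labelled switching-strand clusters, on a modified Illumina MiSeq flow-cell, were annealed to 100 nM quencher-labelled ATP aptamer and imaged in selection buffer, then after 15 min with 500 uM ATP at 22 °C, for five cycles with NaOH stripping and re-annealing between them.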
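Also: ATP exposure 15 min at 22 °C before imaging.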

Sequence | switch fluorescence ratio
TTGATGTAAA | 0.997 ± 0.033
GTTGAGGTCG | 0.995 ± 0.022
GATGGCTACG | 1.01 ± 0.024
TTTGCATGAT | 0.982 ± 0.017
TGACTTGGCG | 1.026 ± 0.0087
CTCCCACACG | 2.35 ± 0.36
ATGAGGGGGA | 0.997 ± 0.026
ATCGAAAGGG | 1.01 ± 0.054
GACGGCTATG | 1 ± 0.048
ACGTCTTCAC | 1.069 ± 0.002
AATTAGCCAT | 0.987 ± 0.011
GGATTGTAAT | 0.9956 ± 0.0034
TTTCGGGGTG | 1.09 ± 0.17
GTGGAGGGGA | 1.01 ± 0.043
GAGAATGGGG | 0.983 ± 0.024
TCGGATAGCT | 1.02 ± 0.014
TAGGCTTTAA | 0.976 ± 0.011
TAGATGAGCA | 0.965 ± 0.07
ATGGGTTGGG | 0.991 ± 0.017
TCTTTCCTGC | 1.022 ± 0.0014
AGAAGGGGGA | 1.01 ± 0.039
TTATCGAATT | 1 ± 0.025

Sequence | switch fluorescence ratio
TAGAACAAAA | 0.99 ± 0.015
TGTGGGAGGT | 0.9573 ± 0.0065
GTATAGGGAA | 1.004 ± 0.0071
ATTTCGGGTT | 1.11 ± 0.28
ATACGGGGTA | 1.03 ± 0.054
TTTGTGTGTA | 0.9846 ± 0.0097
TATCTGGGTC | 1.02 ± 0.067
TTGTATATGT | 1.0292 ± 2.1e-05
GAGGATTATT | 0.9694 ± 0.0059
TTTTTTTGGC | 1.02 ± 0.029
CCTTTGGAGG | 0.981 ± 0.016
AGGGGCATTC | 1.03 ± 0.064
TTGAATATGG | 1.01 ± 0.021
CCCCGTGTAT | 2.48 ± 0.046
TTGCGCCTTT | 1.03 ± 0.0099
GCTGCAGATT | 0.988 ± 0.03
TGTGTTGTCA | 1.01 ± 0.011
ATGTGGGATT | 0.965 ± 0.013
GACGTTAAAC | 1.56 ± 0.019
TATATTTTGT | 1.02 ± 0.016
TTTTTTGTGC | 0.9901 ± 0.0052
CTCGGCGCGC | 1.024 ± 0.0044

Sequence | switch fluorescence ratio
CACGGAGAGT | 1.14 ± 0.18
GAAAGGGAAA | 1.03 ± 0.032
CGGTGGTCAG | 1.01 ± 0.0076
CGGTGTATTT | 0.9547 ± 0.0037
CATTAGAATC | 0.997 ± 0.028
TTCTGAAAAC | 1.0127 ± 0.00023
CCAGTCGTCT | 1.02 ± 0.026
CTCTGGGAGG | 0.995 ± 0.021
TCATTGGTTA | 1.02 ± 0.042
GGATGACAGA | 0.969 ± 0.01
CTTAACGGGA | 0.99 ± 0.026
TACGGGGGTT | 0.994 ± 0.011
CTACGAAGTA | 1.01 ± 0.015
AGGTTGTGTC | 0.979 ± 0.047
TATGGTATGC | 1.0138 ± 0.00069
TTTTAGGCTT | 1.01 ± 0.026
AGGGGTGCAG | 0.995 ± 0.01
AATTACCGCG | 1.03 ± 0.023
GAAAGTTCGA | 0.987 ± 0.01
TTTATAAAAA | 0.998 ± 0.026
CGTTTCGTGT | 0.972 ± 0.066
GGCTTCACGA | 1.07 ± 0.014

Sequence | switch fluorescence ratio
TAAATCGTTG | 0.9906 ± 0.005
GCCTGAACTT | 1.03 ± 0.006
TTACAGTTGT | 1.01 ± 0.038
GTTGCGGAAT | 1.03 ± 0.023
GTTGTAGCAC | 1.07 ± 0.029
GGGAGGGGTT | 1.01 ± 0.04
AGGTGAGAAT | 1.16 ± 0.035
AGGCCATAAG | 0.9953 ± 0.0034
CGGCATGGAG | 0.996 ± 0.025
TGATTAGCAA | 1.26 ± 0.3
TTCGTGCGGC | 1.06 ± 0.042
TTGGGGATGT | 1 ± 0.031
CTAAGGGGTG | 1.022 ± 0.0057
CCAAAACAGC | 1.028 ± 0.0022
AAGAAGGGCA | 1 ± 0.055
TGCTAGCCGG | 1 ± 0.015
GAGAAAAGGG | 1.04 ± 0.037
TTTGCAATAA | 2.35 ± 1.7
GAGGCTGTTT | 1.01 ± 0.035
